In publication PMC4085236:

Experiments:
[1] = target: Cullin5/Rbx1 complex (mouse | not stated) (UniProt Q9D5V5); experiment: SEC
[2] = target: GST-Cul5(NTD)/HIS6-Rbx2/Cul(CTD) complex (mouse) (UniProt Q9D5V5); experiment: pull-down + SEC
Sequence of GST-Cul5(NTD)/HIS6-Rbx2/Cul(CTD) complex (mouse) (Q9D5V5 1-384, chain 1 of 3): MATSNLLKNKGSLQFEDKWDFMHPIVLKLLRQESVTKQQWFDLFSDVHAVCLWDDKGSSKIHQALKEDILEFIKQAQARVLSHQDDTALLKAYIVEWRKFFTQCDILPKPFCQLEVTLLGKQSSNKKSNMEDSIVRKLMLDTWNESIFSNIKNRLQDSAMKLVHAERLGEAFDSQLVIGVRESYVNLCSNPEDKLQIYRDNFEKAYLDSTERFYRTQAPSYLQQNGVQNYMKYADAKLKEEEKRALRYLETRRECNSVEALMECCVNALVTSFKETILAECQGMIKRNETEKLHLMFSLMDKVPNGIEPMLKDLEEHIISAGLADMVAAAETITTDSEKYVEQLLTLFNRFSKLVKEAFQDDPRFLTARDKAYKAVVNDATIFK
Sequence of GST-Cul5(NTD)/HIS6-Rbx2/Cul(CTD) complex (mouse) (Q9D5V5 385-780, chain 2 of 3): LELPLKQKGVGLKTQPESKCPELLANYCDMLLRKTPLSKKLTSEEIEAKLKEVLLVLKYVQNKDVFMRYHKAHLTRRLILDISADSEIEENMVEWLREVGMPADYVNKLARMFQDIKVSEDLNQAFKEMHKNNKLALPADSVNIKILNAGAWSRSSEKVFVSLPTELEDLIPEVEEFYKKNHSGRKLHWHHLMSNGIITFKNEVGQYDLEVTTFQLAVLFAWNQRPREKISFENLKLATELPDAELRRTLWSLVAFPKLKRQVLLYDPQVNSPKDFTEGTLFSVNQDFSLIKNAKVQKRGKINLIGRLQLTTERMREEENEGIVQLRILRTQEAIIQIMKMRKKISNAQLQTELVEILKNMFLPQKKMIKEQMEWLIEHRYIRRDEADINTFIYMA
Sequence of GST-Cul5(NTD)/HIS6-Rbx2/Cul(CTD) complex (mouse) (Q9WTZ1 whole entry, chain 3 of 3, further chain): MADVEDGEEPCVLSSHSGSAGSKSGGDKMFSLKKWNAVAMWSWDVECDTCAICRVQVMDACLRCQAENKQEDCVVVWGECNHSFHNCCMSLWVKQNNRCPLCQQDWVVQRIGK

Sequence of Murine SOCS3/elonginsBC complex (O35718 22-225): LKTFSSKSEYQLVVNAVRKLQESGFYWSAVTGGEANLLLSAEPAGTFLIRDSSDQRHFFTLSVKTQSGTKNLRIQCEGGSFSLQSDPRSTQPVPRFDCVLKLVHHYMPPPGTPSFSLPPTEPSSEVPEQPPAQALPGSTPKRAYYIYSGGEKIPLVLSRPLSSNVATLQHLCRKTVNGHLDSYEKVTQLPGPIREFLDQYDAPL
Sequence of Murine SOCS3/elonginsBC complex (P62869 whole entry): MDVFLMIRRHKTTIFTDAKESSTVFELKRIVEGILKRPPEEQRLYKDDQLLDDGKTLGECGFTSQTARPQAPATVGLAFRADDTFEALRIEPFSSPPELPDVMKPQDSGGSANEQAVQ
Sequence of Murine SOCS3/elonginsBC complex (P83940 whole entry): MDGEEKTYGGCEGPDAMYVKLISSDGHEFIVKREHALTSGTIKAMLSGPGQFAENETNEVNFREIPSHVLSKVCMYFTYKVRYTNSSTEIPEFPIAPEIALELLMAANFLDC
Sequence of Cullin5/Rbx1 complex (mouse | not stated) (Q9D5V5 1-384, chain 1 of 3): as the sequence (Q9D5V5 1-384, chain 1 of 3) above
Sequence of Cullin5/Rbx1 complex (mouse | not stated) (Q9D5V5 385-780, chain 2 of 3): as the sequence (Q9D5V5 385-780, chain 2 of 3) above
Sequence of Cullin5/Rbx1 complex (mouse | not stated) (P62878 whole entry, chain 3 of 3, further chain): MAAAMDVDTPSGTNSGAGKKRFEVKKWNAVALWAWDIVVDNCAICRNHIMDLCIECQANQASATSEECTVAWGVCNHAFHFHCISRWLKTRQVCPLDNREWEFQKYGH

stoichiometry N [1]: 1
stoichiometry N [2]: 1
Substance: Murine SOCS3/elonginsBC complex (from UniProt O35718 22-225; P62869 1-118; P83940 1-112)
